Test results from the NTF2 design screens of Basanta et al. (2020).

Assay: protease stability score; higher = more stable; yeast display proteolysis, trypsin and chymotrypsin;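 further: relative to predicted unfolded state with 0 unfolded-like and 1 meaning tenfold more protease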

| Sequence | protease stability score |
| --- | --- |
| NEREKWAVDMFEILVHLFFTGDEEIMAHMADPNTQIHYGEYHHHGRDHLRELLREEFKRVDHVEWRLDTVRIIDGRVLIHSHVIHKVGEKTIKREYVIILLKVNGQWHIKHIEIR | 1.46 |
| NERKKFIEELARLYFKWWLTGDFENLLRNADPNTRIDVNGREIIGREKFVEELREHVDKFKNIREDLHDMDLQGDKVILHIRMNVDGKTIEVRVEIFVINGQIRSESWRFE | 1.34 |
| NERTEEIEEAMERMLEWWRTGNFEDINKNLDPNMRTHVFIDGREVLFHGRELMLEIFDRMGVDHIEVTHFDVIGNKVEVHSRSHQGDKHVDIKLVLEKIDGRWILSQIHIRIE | 1.94 |
| NESEELYRIALELKRETDKTGDEEIFRKLMDPSTRLEVDGRIWHGREAVEVFIRRFDHLHRFEVKDTRVFDGQVQIEGELDSTVGDKRLNVHIEVFAIKFDGRWRLKSVRVE | 1.58 |
| NETEELLRRMIEDNLRAMLTGDEERIRKLADPNVRNHINGRTHVGREELAHVFHRIFEEWRIDHMTLRDSDTQGEFIILHYIFDIRFDGRRQELEVEIIFYKIDGRWILHKITFK | 0.75 |
| NEVDEWVEEAVHLLEEILETGDFRELSNYFDPRVRIDINGRDYHGRELALEQLLRWIEDLGVKHFDHYEIHDREIQGEKVNLNIEITLTFDGRRHTIHHNFHMEKVNGKWVIESIHIR | 1.19 |
| NEVEDEIKHLLEHLLHSHDTGDWHDLVRLADPNVRVNINGKHFHGREDVEEVIKRLGIKHIRIHHVEVQGDKIHIDGNMHFDGRVYETHIDAKKIDGRWIMHNLEVR | 1.4 |
| NEWKEKFERFTRLLLTALMTGNEELLTKMVDPHVKVDIIINGQHIEHHGMERVIEMLTQLRVDRWRIKHIDIQGDKLHVNIHLDIKYDGRREETRTEIRLIIYDGVVHEIEIHLH | 1.99 |
| NEWQEILLRISEKILKDLFTGNEEVWEKLVDPDAQVHINGKEVHGREEALHFLKELKDELRVEHLFIRDVKLQGDKVSLTSESRGNVNGVRRDMKVEIIVIVINGRVKHEKFIII | 1.37 |
| NHDEEHLKRLLEDEREMLETGNEDEIRRLLDPHVRLDIDGRNIHGREEVAKWMVKLALRVDVFIIRVKRFHIQGDYIYFDTHIEEIVNGQHISFDVMIIIWKYNGRWLIHSIIVR | 1.58 |
| NHDEEKTHEFKEKWMKDVTTGNEEEISKLMDPNAKIVVNGREYHGREKMWETIHRLLKILGISRVEVRIESVHIYDGRIEIHMRVHAENHESHIIVHVEKIDGRWSSKHLRID | 0.968 |
| NHEEEERHETFRIFLESVRTGDWKNTEKLLDPNARQVWNGKVLHGRESVIEVMRELRVDSLDVKSFDIQGEKAIMHGESEGVFNGKRLNMTLETHLVKVDGKWFLRELVII | 1.23 |
| NHEEEHAKTLFEEWLRVLLTGDWKMFSHLADPHTRIHIGNKDIHGRDLFVELVIRELEEIRVILIVEELSAQGDKSRMRTRLIIRQGEFEHRTELRLEIVFVDGKFTSIHLRHK | 0.599 |
| NHLEEVKDLAIELSWKLMHTGNEELSDRNADPNTRLEFNGVEFVGREWFRQFISEMGVKHIRIDDIDMFDGRMRLDGTFNFNGQEIKVTVFTRKVDGRWRIKSLKFD | 1.6 |
| NHQQIAFHFLWDIVEYLLMTGDEHILEKYADPTVKTLVDGRELHGREDVIRFFHEMFKRIDHIQDVKLHDYRFQGNKVEIDSRIIGTIDGQRDVITVTWRVLKVDGRWLIHTVELH | 1.69 |
| NKHERDAEHFIKEWWHDVHTGDEDHYLKRLDPNMRVDINGQEFHGREKVLTFFHEHSRHLGIDHLIIDHVRIRVQGNKIEEEVEGENVFNGKRLEVRFHFVARKIDGRWELEHLTVRIS | 0.724 |
| NKMDEYAYKMLELWLEAFLTGDFEFIEKNLDPHVRSRINGVELIGRHLYLEMVRREMEEIRVKDVHPRRVEIIDGVVHFHGEWNGQVNGRETHKEHEVEIIVVNGRLKSVIFRIR | 1.27 |
| NKMMEEIHHWLRLLIENEITGDEEKSLHLADPEARIDFDGVEIHGWERFLKFVEEKLKLLGARVEDIKIHDYRIIDGRLHIDSRVHIEINGVRQTREREIVSRKVNGRWLVNSLHFR | 0.607 |
| NMDEKLKRWAIEDHIKSDETGDENMKEHYMDPNVRIDIGDYELHGREAAIRDIRRIRHEMGVKVMHVEIEHVDVQGEKIRIHSRLIFEINGKEVRHETNIIYSKFDGRWVLKHESIK | 0.102 |
| NREDRELEDFIWEILEAWRTGDEDEHHRLLDPHTRHHFNGRVSHGREMVEYIFKQFDHIHRFEYRDFSVQGNKAHVFAQVDVRIGDKIITFDVTIEVEKVNGRWVLRELSIH | 1.31 |
| QDIDHQLERAVKEILETFITGDESLASHLFDPDVRVIQGDKHIHGREEVTKVFYEFVKRADHVEIRMREVESQGDIIDIETELILRIGDKEVRHRVRLIVVKYNGKWHIKSMEVD | 2.72 |
| QEDEDFVRWALHVFMRYVLTGDEESLERLLDPDVRITVGNKHLHGMENATNELRHMSKQVDHIHDLRFHDVRSINGRIHETGIDDGIINGRRIHRESILVIEKVNGRWHFHSIRVL | 0.836 |
| QEDEKLADEVVERIAHDIHTGDEDSLRHLMDPHVRLQVGDKRYIGRESVLEFLRQLRIEVEDVKIHDIHVVNGQMHSDTRIHGRIFVNGRDIETTLRSKHILLKYDGKWLWHSWHIH | 1.31 |
| QEDRERAERIINELMENELTGDEDRLRELADPRVRVEYDGQEHIGMELRSTWIKEMRFDHIHVDIDEFEFQGNKIHIKARFHIDVNINGRKRRYTVETFLVMKKINGVWFIKDIVFH | 1.36 |
| QEEEEFVRKFVHEVIRALMTGDEHRMHELLDPHVISSRHIGDKHVHYHGREEVLRHLHEWLTHLRIKSLEIRSHKAFDGRMIVHGTLFGQQGDKDVEFEVIIDLEVINGRIKHFHVELR | 1.32 |

| Sequence | protease stability score |
| --- | --- |
| QEELDIAREMIKMWTHHLETGDEEVTKHLADPTTRFIIDGVTYHGMHNTVRLWLEIRSHSRIRIRFVEVQGNKVNSDVELEYDLIVGEKTDTIIRRSHLYLHKVDGRWRIKEIEFR | 1.12 |
| QEYDEHIEELWRDFVHAMITGDEDRLSELMDPDTRILVGDKHLVGWDRALRFLHEHIREIRPTDFKLRDIRFFDGRIHVDTEMRLVVNGQEVHKKTHLIVYKYDGRWHIEAIIEH | 2.24 |
| RDEDEVVDHIARLIVEAWRTGDEDWLKKMADPNVKQHIHIDGKTEINHGREEMIHQLERLHRKLGVDHHHLKSSTVIGDKIKIHMEERIGDFSIFVHVEFIVINGRMKEIRISIERE | 0.931 |
| RDEDHELKEMRRMIHEIIMTGDEDKWKKMADPHVQLHIGDKHHHGRDHVSRILTELRVHHFDVEHIHHEFINGRATLRIEGTLHGIINGVEKKVETEIRIIIIKFNGVWYIESQEFHVI | 0.492 |
| RDEDRDRHHAWREFERIMLTGDWRESEKLIDPHVRLDIDGRRHHGMEIYSTLLYHISTRADHIRVILDDIKVQGEKVEVDTIIDIHVGDKHIHIKTHIVASKINGRWFLHSLKID | 0.929 |
| RDEEEEARRMMEIFLEDVRTGDEDSLKELADPNVKSEINGVELVGREEVLKTLREILRELGVSNVEVRLHRIHVYDGRAHIDGRLNVNGRELEMHVDMEKVDGRWRIRRIELR | 2.27 |
| RDEEEYAHRVLELWRFILETGDEDTLYELADPNVRFKFLQGNKEIHRHGRERMVEEIRTRREELGVKHIHLEHVEVWNGVVHLRVVVHFNGKELRSRIIIVVIDGVIKEIEIREE | 1.04 |
| RDEESHLKHLAERIMKSWETGDEHTLRHLFDPNTRSHVEVGDKRWSFIGMENFDRWFRELHEEMGANHTTVHDTKIQGNKLTMDTRLLVGDKEIRTRLIFHIVDGRITHIIIKLE | 1.31 |
| RDIEEINKRALESWKHALETGDEDTMEELLDPHVRVEDEHEMHHGRSAFHLWIKRVDHFRSLHIRETRIVGDKVDNNVEVDGTINGQDRLIEIRLVLVKFNGKWKFRSIHFK | 1.38 |
| RDIRELTLMMTKLIRKTDKTGDPRIAHELADPHYRFDFDGVEYHGREIVQHWMEKYPNVRFKVRHVDIVGDKARIEGTDNVDGQEIDTEYRVSKVDGRWHLEEIIFR | 0.487 |
| RDKERMVHFIANYVLHSVLTGDWKMLFDLLDPSMRLEIGEKDSHGRENAEKLLHEFLEKLGADHTDIRRSHVTFQGDKIIIIINTEIDINGVRHEIWVRVIILKIDGKWVLESIRIEIR | 1.54 |
| RDLDEIARHVIELWKETYETGDERHLRELLDPNMRVEVNGVESHGREEMMKHMVKYAREIRITEIIDRDTDSQGNKLHIHGEIIVEQGDKKHRYTLDVTFFVVDGRIKHLHFRSK | 1.2 |
| RDMEHIMKELIHFVLHAVMTGDEEKMRQYADPHVKLNYNGVEVVGMEEILKIWRHIRIEIEDHTVEHISVVDGKLRSDTRVDVHIEFNGRHIRENLHTHVIIYKVDGRWVFKEVRIK | 1.84 |
| RDSEEKDKIFLSIVESAILTGDPETSEKMADPNVRIDFNGKDLVGREDYHRFVKRWLEEARFHKLVIHELRHVDGRMDSHTQEIVDIDGRRYTHDTHIIMLKIDGRWILHSKTVR | 0.986 |
| RDTEETVENASKRWVRTMETGDEDVLHRLLDPHVRVEAENHEIHGREIVSTHIREILEKLGMTIHIHLKDVRVQGNKAEIDMHIEYIIDGRITSHDYTLINRKINGRWLVERVIIN | 0.31 |
| RDVEHLLEKWMEDHMEALHTGDEDRIHELLDPHVRVHIDGVNLHGRERAVEFMVRSLRELGIKHIKLDVEDVEVQGEKVIIDLRVNLDYDGREHRDKEIIILLKIDGKWVIEEVRRG | 1.07 |
| REDDEMSEEANRLLHELVRTGDFEQLIKNMDPNTRLRQGDKHFHGREEYEKHWRELLERAGLERVELHIDDIRVFNGVAHINGTLRIGDKVMEVRLILTKFNGKWIFTSMEIH | 1.26 |
| REDDERIDEMVELIFHWEQTGDEEKVYNNMDPHVRIDYNGRELHGWKKFTEELRLIYEEMRLKHIHISHQTIQGEKAIVHVELEGQVGDKRYIHRREIIVLKIDGKWIIKMVRFV | 1.49 |
| REDEDAVREWALKFLESSLTGDEHFLKNLMDPHARLVIGDKHFHGREEVVRTWREFLTKFKNVRHDLHDINIQGDKVDVVENLVFDGVRTRTRITMRKVDGRWVITDIVIE | 2.08 |
| REDEEFAIHMFLNLIRWLMTGDEEQLEELADPDTKYHQGDKTLHGREEFLKWFHLMHKWLGIKHIEMRITDLRAVDGRVESEVSVDEHYDGRTKRYRTIIIVNVVNGKLKSEERHID | 1.22 |
| REDEEHTKELLDAWQEAVETGDEDFILELFDPHVRSQVGDKERHGRHSFLELLRRLLEELGFDHVQFHITHREIQGDKITVETRLIFEYGDKRLEVQVEVEVKKINGRWYIHSVRWK | 1.87 |
| REDEEITHKLLELLLTVIRTGDEQEMLNLLDPNTRHDVNGKHLHGRETAHRLFHEWSRHMRIHDLEIHDEKKIGNKVHIDGRLDGHIDGKREKIEVEFVIVKIDGRWVINSMTIK | 0.931 |
| REDEELVKQVVKDFDHAVETGDEDRLRELLDPDVRISQGDKEFHGREDYELHLRQWRYENHRVHDVRIYGDKARIHGHLHLKIGDKHLEVETILILHKVNGRWRVRHLEIR | 1.83 |
| REDEEMAEKISEFIFHVLETGDEKSNHENIDPNARTHIGDKHSHGRENVTRMMDWWMHFLGVKHIEKKDLEIQGNFAFLHSISVVGDKTFEIDVTALKVNGQWVFKKFQVN | 1.64 |
| REDEEMIEHAVRREIHSYYTGDWEKHYKLLDPNALIHIDINGRQENIHGREEIMRFWYERFKDFGFDHMEIKRITLVDGKLHIFSIIDVNGVRIELEIIIVKVDGRWRLHTMRYHYH | 0.652 |
